Key:
Assay in all cases: cell-based or functional assay
[1] = target: hNav1.1 (human) (UniProt P35498)
[2] = target: hNav1.2 (human) (UniProt Q99250)
[3] = target: hNav1.3 (human) (UniProt Q9NY46)
[4] = target: hNav1.4 (human) (UniProt P35499)
[5] = target: hNav1.5 (human) (UniProt Q14524)
[6] = target: hNav1.6 (human) (UniProt Q9UQD0)
[7] = target: hNav1.8 (human) (UniProt Q9Y5Y9)

Chain of hNav1.2 (human) (Q99250 whole entry): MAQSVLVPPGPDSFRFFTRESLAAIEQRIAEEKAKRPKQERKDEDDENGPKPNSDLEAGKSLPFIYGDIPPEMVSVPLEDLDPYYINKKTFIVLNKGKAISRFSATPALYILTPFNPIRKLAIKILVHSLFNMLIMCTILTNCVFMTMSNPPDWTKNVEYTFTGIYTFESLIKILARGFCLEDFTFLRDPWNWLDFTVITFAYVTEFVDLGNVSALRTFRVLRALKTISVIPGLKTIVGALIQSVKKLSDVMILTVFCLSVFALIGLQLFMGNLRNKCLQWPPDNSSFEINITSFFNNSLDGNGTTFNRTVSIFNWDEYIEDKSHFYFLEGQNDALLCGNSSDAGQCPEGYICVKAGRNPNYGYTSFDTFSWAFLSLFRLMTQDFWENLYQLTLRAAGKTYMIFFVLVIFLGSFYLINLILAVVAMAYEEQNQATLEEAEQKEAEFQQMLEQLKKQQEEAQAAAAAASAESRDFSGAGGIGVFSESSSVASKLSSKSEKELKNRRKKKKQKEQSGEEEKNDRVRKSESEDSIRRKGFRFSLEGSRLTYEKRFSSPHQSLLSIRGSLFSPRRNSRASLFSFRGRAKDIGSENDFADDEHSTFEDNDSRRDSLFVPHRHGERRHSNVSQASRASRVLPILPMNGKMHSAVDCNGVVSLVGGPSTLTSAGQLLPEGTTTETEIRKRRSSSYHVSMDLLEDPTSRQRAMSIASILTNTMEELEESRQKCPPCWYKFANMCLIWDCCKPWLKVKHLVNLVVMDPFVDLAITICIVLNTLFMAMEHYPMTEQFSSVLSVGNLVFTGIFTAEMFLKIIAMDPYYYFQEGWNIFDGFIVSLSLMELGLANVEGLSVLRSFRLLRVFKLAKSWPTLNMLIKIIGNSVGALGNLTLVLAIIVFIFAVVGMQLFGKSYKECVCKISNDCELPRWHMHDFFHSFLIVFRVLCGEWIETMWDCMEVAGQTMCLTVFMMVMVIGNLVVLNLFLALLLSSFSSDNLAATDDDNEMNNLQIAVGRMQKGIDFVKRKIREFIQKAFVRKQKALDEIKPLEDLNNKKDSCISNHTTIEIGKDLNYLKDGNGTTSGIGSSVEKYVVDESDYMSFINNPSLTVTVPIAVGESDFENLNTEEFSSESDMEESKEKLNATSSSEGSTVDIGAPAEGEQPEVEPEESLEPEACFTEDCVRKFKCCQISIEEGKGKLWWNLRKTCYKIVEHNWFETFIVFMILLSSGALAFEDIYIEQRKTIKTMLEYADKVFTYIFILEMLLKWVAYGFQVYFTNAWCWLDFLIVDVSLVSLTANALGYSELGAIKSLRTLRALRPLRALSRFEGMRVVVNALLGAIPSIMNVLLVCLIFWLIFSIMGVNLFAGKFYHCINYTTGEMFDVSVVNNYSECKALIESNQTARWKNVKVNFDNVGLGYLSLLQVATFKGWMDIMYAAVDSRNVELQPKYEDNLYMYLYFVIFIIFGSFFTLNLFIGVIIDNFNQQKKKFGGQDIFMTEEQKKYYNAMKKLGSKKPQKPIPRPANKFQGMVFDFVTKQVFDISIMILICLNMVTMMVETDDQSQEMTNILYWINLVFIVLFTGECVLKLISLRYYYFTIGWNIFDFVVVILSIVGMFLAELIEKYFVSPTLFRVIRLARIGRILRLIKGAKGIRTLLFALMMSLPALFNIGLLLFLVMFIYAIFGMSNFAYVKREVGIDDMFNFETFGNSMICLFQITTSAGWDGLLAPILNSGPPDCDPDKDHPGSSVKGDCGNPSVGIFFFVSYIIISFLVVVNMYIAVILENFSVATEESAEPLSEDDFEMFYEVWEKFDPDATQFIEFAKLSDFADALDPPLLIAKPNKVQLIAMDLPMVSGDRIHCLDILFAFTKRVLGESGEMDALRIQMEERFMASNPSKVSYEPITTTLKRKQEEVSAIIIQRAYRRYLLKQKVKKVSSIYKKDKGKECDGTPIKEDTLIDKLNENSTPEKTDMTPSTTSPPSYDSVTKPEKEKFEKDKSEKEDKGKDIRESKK
Chain of hNav1.4 (human) (P35499 whole entry): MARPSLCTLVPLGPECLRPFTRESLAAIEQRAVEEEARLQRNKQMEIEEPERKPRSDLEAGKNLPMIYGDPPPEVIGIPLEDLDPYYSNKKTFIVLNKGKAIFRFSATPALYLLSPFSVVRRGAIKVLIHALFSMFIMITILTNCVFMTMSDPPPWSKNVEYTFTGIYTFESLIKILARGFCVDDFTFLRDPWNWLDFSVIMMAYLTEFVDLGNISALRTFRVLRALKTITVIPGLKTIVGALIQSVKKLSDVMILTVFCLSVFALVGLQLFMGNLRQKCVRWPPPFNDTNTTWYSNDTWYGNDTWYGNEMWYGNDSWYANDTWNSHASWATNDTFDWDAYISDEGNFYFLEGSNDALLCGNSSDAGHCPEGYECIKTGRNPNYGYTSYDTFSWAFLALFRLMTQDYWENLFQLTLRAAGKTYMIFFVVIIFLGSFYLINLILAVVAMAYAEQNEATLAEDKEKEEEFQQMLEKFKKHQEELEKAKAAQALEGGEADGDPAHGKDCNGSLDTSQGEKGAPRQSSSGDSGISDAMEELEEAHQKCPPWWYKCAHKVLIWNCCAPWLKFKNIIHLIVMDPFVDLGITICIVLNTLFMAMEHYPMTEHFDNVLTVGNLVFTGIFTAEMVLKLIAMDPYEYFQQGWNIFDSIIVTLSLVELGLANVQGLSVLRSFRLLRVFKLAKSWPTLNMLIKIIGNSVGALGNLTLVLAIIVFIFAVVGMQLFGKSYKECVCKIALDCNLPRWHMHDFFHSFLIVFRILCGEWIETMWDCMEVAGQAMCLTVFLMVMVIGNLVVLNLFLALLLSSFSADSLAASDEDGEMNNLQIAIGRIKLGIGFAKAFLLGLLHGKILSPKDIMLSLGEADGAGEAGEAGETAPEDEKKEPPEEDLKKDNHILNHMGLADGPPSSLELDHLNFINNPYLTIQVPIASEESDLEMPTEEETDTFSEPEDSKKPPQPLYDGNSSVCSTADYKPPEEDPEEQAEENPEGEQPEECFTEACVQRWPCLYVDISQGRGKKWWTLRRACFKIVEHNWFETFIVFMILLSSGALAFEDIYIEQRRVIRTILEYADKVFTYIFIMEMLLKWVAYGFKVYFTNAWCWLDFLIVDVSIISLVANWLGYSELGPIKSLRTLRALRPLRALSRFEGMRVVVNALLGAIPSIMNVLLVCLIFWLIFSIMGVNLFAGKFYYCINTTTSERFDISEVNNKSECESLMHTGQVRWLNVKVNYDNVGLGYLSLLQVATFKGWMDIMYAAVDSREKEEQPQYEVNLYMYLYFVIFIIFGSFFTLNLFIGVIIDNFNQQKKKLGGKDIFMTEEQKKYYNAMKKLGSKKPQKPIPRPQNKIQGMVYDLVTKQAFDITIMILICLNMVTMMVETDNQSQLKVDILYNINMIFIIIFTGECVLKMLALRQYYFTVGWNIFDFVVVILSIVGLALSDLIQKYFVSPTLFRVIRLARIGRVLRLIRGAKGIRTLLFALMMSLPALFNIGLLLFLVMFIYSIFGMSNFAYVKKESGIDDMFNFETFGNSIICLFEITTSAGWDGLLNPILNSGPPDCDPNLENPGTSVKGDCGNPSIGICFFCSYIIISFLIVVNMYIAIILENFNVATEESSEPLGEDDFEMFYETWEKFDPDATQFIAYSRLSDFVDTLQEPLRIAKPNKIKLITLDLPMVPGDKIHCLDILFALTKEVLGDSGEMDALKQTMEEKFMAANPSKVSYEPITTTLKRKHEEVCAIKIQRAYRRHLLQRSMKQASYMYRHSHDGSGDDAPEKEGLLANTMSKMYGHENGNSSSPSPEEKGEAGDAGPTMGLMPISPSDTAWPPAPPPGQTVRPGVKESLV

Substance | IC50, membrane potential assay [1] [µM] | IC50, membrane potential assay [2] [µM] | IC50, membrane potential assay [3] [µM] | IC50, membrane potential assay [4] [µM] | IC50, membrane potential assay [5] [µM] | IC50, membrane potential assay [6] [µM] | IC50, membrane potential assay [7] [µM]
Ac-Pnc1a (peptide) | 23 | 5 | 8 | 14 | > 30 | 16 | > 30
Pnc1a-CONH2 (peptide) | 8 | 3 | 7 | 16 | > 30 | 20 | > 30
